From the supplement of paper PMC9112550, “Optimization of the antimicrobial peptide Bac7 by deep mutational scanning” (BMC Biology, 2022)

tested on: Escherichia coli TOP10; experiment: shrunken log2 fold change of peptide-encoding DNA abundance (4.5 h post-induction vs induction); higher = less antimicrobial activity (less host growth inhibition); conditions: time post-induction: 4.5 h; library: site-saturation at positions 5, 18, 19, 20
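Further: peptides expressed intracellularly from a pBAD plasmid library in pooled LB shake-flask culture, induced with 0.3% L-arabinose, DNA abundance read by NGS, three biological replicates, DESeq2 with apeglm shrinkage.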

Sequence | shrunken log2 fold change
RRIRKRPPRLPRPRPRPCPPPRP | 0.0811
RRIRLRPPRLPRPRPRPGCEPRP | 0.409
RRIRCRPPRLPRPRPRPGNRPRP | 0.0246
RRIRTRPPRLPRPRPRPMKKPRP | -0.115
RRIRWRPPRLPRPRPRPAFPPRP | 0.446
RRIRNRPPRLPRPRPRPEHEPRP | 0.127
RRIRDRPPRLPRPRPRPVKVPRP | -0.0343
RRIRWRPPRLPRPRPRPFATPRP | 0.834
RRIRSRPPRLPRPRPRPMRFPRP | 0.378
RRIRLRPPRLPRPRPRPMHPPRP | -0.0318
RRIRHRPPRLPRPRPRPPEFPRP | -0.0433
RRIRVRPPRLPRPRPRPHPGPRP | -0.325
RRIRARPPRLPRPRPRPNYDPRP | -0.36
RRIRTRPPRLPRPRPRPYLKPRP | -0.27
RRIRFRPPRLPRPRPRPMNDPRP | -0.122
RRIRGRPPRLPRPRPRPIVHPRP | 0.342
RRIRKRPPRLPRPRPRPRDKPRP | 0.116
RRIRFRPPRLPRPRPRPSAGPRP | 0.192
RRIRDRPPRLPRPRPRPPRVPRP | 0.727
RRIRLRPPRLPRPRPRPHVNPRP | -0.105
RRIRSRPPRLPRPRPRPYGPPRP | -0.401
RRIRRRPPRLPRPRPRPNTEPRP | 0.119

Sequence | shrunken log2 fold change
RRIRTRPPRLPRPRPRPWPIPRP | 0.00716
RRIRVRPPRLPRPRPRPDSSPRP | -0.0452
RRIRIRPPRLPRPRPRPYNEPRP | -0.0675
RRIRFRPPRLPRPRPRPFTDPRP | -0.0297
RRIRCRPPRLPRPRPRPQDFPRP | 0.0295
RRIRFRPPRLPRPRPRPTMMPRP | -0.0556
RRIRGRPPRLPRPRPRPQPGPRP | 0.606
RRIRKRPPRLPRPRPRPYGSPRP | -0.224
RRIRKRPPRLPRPRPRPLKSPRP | 0.713
RRIRCRPPRLPRPRPRPIMFPRP | -0.388
RRIRYRPPRLPRPRPRPNQKPRP | -0.0988
RRIRFRPPRLPRPRPRPRRNPRP | 0.136
RRIRMRPPRLPRPRPRPWLGPRP | 0.221
RRIRSRPPRLPRPRPRPCDRPRP | -0.00911
RRIRVRPPRLPRPRPRPAWVPRP | 0.459
RRIRARPPRLPRPRPRPNPCPRP | 0.0698
RRIRDRPPRLPRPRPRPWQWPRP | -0.0124
RRIRMRPPRLPRPRPRPNLSPRP | -0.436
RRIRKRPPRLPRPRPRPNPQPRP | 0.463
RRIRKRPPRLPRPRPRPVALPRP | -0.0167
RRIRERPPRLPRPRPRPSHHPRP | -0.73
RRIRARPPRLPRPRPRPNGSPRP | 0.304

Sequence | shrunken log2 fold change
RRIRERPPRLPRPRPRPDLQPRP | 0.00923
RRIRTRPPRLPRPRPRPCDNPRP | -0.267
RRIRLRPPRLPRPRPRPFIKPRP | -0.66
RRIRRRPPRLPRPRPRPEYMPRP | 0.0765
RRIRWRPPRLPRPRPRPTNTPRP | -0.284
RRIRDRPPRLPRPRPRPRIGPRP | -0.00724
RRIRIRPPRLPRPRPRPKTAPRP | -0.143
RRIRPRPPRLPRPRPRPCERPRP | 0.0579
RRIRIRPPRLPRPRPRPYVGPRP | -0.384
RRIRNRPPRLPRPRPRPASWPRP | 0.369
RRIRHRPPRLPRPRPRPLIVPRP | -0.314
RRIRARPPRLPRPRPRPCSQPRP | -0.172
RRIRIRPPRLPRPRPRPPCKPRP | -0.422
RRIRDRPPRLPRPRPRPQEAPRP | -0.0652
RRIRKRPPRLPRPRPRPCRMPRP | -0.00386
RRIRERPPRLPRPRPRPVFAPRP | 0.181
RRIRYRPPRLPRPRPRPFQKPRP | -0.0884
RRIRTRPPRLPRPRPRPEANPRP | -0.0399
RRIRSRPPRLPRPRPRPRCNPRP | 0.124
RRIRIRPPRLPRPRPRPYRGPRP | -0.155
RRIRSRPPRLPRPRPRPCGPPRP | 0.118
RRIRNRPPRLPRPRPRPNHNPRP | -0.858

Sequence | shrunken log2 fold change
RRIRFRPPRLPRPRPRPPIHPRP | -0.255
RRIRERPPRLPRPRPRPRRKPRP | 0.11
RRIRIRPPRLPRPRPRPFRDPRP | -0.111
RRIRMRPPRLPRPRPRPRWEPRP | 0.814
RRIRNRPPRLPRPRPRPNDYPRP | -0.365
RRIRARPPRLPRPRPRPCSDPRP | 0.431
RRIRIRPPRLPRPRPRPENEPRP | -0.428
RRIRLRPPRLPRPRPRPTDAPRP | 0.193
RRIRMRPPRLPRPRPRPHHYPRP | -0.51
RRIRKRPPRLPRPRPRPYASPRP | 0.0496
RRIRDRPPRLPRPRPRPMMTPRP | 0.395
RRIRSRPPRLPRPRPRPQYDPRP | -0.352
RRIRNRPPRLPRPRPRPRICPRP | 0.101
RRIRERPPRLPRPRPRPSDEPRP | -0.228
RRIRRRPPRLPRPRPRPSNRPRP | -0.0253
RRIRERPPRLPRPRPRPGMYPRP | -0.0383
RRIRIRPPRLPRPRPRPLWAPRP | -0.174
RRIRSRPPRLPRPRPRPPYIPRP | -0.296
RRIRGRPPRLPRPRPRPMFMPRP | 0.0699
RRIRWRPPRLPRPRPRPAQSPRP | 0.135
RRIRARPPRLPRPRPRPCNRPRP | 0.0805
RRIRWRPPRLPRPRPRPAACPRP | 0.0948

Sequence | shrunken log2 fold change
RRIRVRPPRLPRPRPRPPEAPRP | -0.0358
RRIRGRPPRLPRPRPRPYVDPRP | -0.0322
RRIRTRPPRLPRPRPRPWTGPRP | -0.352
RRIRRRPPRLPRPRPRPTHPPRP | 0.543
RRIRTRPPRLPRPRPRPECEPRP | 0.154
RRIRNRPPRLPRPRPRPDTTPRP | -0.129
RRIRARPPRLPRPRPRPEVEPRP | 1.3
RRIRLRPPRLPRPRPRPKWFPRP | 0.154
RRIRYRPPRLPRPRPRPNLAPRP | -0.0223
RRIRTRPPRLPRPRPRPFVQPRP | -0.177
RRIRKRPPRLPRPRPRPEIPPRP | -0.00514
RRIRQRPPRLPRPRPRPNNHPRP | -0.71
RRIRRRPPRLPRPRPRPYETPRP | 0.119
RRIRMRPPRLPRPRPRPARSPRP | 1.05
RRIRVRPPRLPRPRPRPDFKPRP | 0.0385
RRIRDRPPRLPRPRPRPIDWPRP | 0.129
RRIRHRPPRLPRPRPRPRYIPRP | -0.528
RRIRHRPPRLPRPRPRPHCAPRP | -0.109
RRIRKRPPRLPRPRPRPIICPRP | -0.0679
RRIRWRPPRLPRPRPRPFRFPRP | -0.0501
RRIRKRPPRLPRPRPRPDSQPRP | 0.0697
